Measured values published in US10570379B2, “Polypeptides for carbon-carbon bond formation and uses thereof” (INVISTA North America S.à.r.l., priority 2015, dated 2020).

Experiments:
[1] = Activity of YdiF mutant enzymes (evaluation of potential active sites); type: biochemical; conditions: studied as in Example 2
Procedure: YdiF mutants were prepared using the relevant primers to introduce the mutated bases via the Quick change lightning kit (Agilent, code product: 210518-5), and cloned into E. coli. In addition, all the proteins used in this experiment have the following extra amino acids added in the N-terminal extremity of the original protein sequence (SEQ ID NO:1): […]. Those additional amino acids correspond to: two amino acids (M and G), a 6×His-tag followed by a 3 amino acids linker (SSG), and a specific proteolytic cleavage site (thrombin site, underlined) (SEQ ID NO: 22). All the sequences were confirmed by DNA sequencing.
(§1) Acetyl-CoA was used at a final concentration of 1.5 mM and 30 mM of the substrate being studied (e.g. carboxylic acid salts, such as sodium acrylate) or 1.5 mM of propionyl-CoA in 50 mM Hepes buffer (pH 7.5). The reaction was started by addition of 0.5 mg/mL of YdiF pure protein or mutants to a final volume of 250 μL and incubated for 1 to 10 hours at 30° C.
(§2) All samples were prepared in triplicate and spun down at 15000 g for 20 min at 4° C. Detection of the thiol product (e.g. acryloyl-CoA) synthesized from CoA-transferase activity and the keto-thiol product (e.g. 3-oxopent-4-enoyl-CoA) due to putative thiolase activity of YdiF (or homologues) was carried out by Liquid Chromatography coupled to a qTof-Mass spectrometry (in positive mode), using a C18 column (Zorbax Eclipse C18, 2.1×50 mm, 1.8μ, Agilent, code product: 959757-902) and a gradient of 10 mM ammonium acetate and acetonitrile as mobile phase.
Mutations were introduced as described in Example 1 at the following positions previously found to be potentially involved in the active site of other β-ketothiolases: C258A, S60A, C112A, S38A, C390A. Activity of the mutant enzymes was studied as described in Example 2.
(§3) Mutations were introduced as described in Example 1 to replace the glutamate in position 324 of YdiF (see Selmer et al., 2002) with glycine (mutant E324G) or leucine (E324L). Activity of the mutant enzymes was studied as described in Example 2.

[2] = Mutant E324G provided with propionyl-CoA and acetyl-CoA; type: biochemical; conditions: propionyl-CoA + acetyl-CoA
Procedure: as §1, §2, §3

[3] = Screen for dual transferase/ketothiolase activity with acetyl-CoA and sodium acrylate, LC-MS detection; type: biochemical; conditions: for ketothiol-product: 3-oxopent-4-enoyl-CoA via thiolase activity; for thiol-product: propenoyl-CoA via transferase activity
Procedure: as §1
Two controls were made from similar mixture except that the enzymes were inactivated by heating-up at 95° C. for 20 min or they were replaced by Buffer C.
as §2
YdiF from Clostridium propionicum belongs to the enzymatic class EC2.8.3.8. Other members of this enzyme class with similar structural features to YdiF, as well as proteins with a CoA-transferase activity from close-by enzymatic classes, were screened for dual transferase/ketothiolase activity as described in Example 2. Acetyl-CoA and sodium acrylate were provided as substrates. LC-MS was used to detect the thiol-product (propenoyl-CoA) synthesized via the transferase activity and the ketothiol-product (3-oxopent-4-enoyl-CoA) synthesized via the thiolase activity, as described in Example 2.

[4] = Substrate specificity, 4-Hydroxybutyrate with acetyl-CoA, LC-MS; type: biochemical; conditions: substrate 4-Hydroxybutyrate + acetyl-CoA
Procedure: as §1, §2
(§4) To study the substrate specificity of YdiF, several commercially available substrates were provided to YdiF (and homologues) in combination with acetyl-CoA, as described in Example 2. LC-MS was used to detect the thiol-product synthesized via the transferase activity and the ketothiol-product synthesized via the thiolase activity.
4-Hydroxybutyrate was used as a substrate with acetyl-CoA for protein 244 and the corresponding products from the transferase and ketothiolase activities of protein 244 were detected.

[5] = Solubility of the expressed protein (Table 3); conditions: protein expressed in E. coli
Procedure: From a fresh LB plate containing the desired clone transformant, one colony (or small scratch) was picked to inoculate 25 mL of LB supplemented with the relevant antibiotic and the pre-culture was incubated overnight at 37° C., 230 rpm. The following morning, the TB auto-induced medium (Merck/Code product: 71491-5) was prepared by mixing 60 g TB/L supplemented with 10 mL Glycerol/L of TB and microwaved during 3+2 minutes at full power. The TB was cooled down before use and splitting it in sterile flasks. Then, the pre-culture incubated overnight in LB was centrifuged and the supernatant discarded. The obtained pellet was resuspended with 5 mL of freshly prepared TB medium and used to inoculate 500 mL of TB dispensed in sterile flasks and supplemented with the appropriate antibiotic. The inoculated medium was incubated at 28° C. for at least 20 h, 230 rpm.
The culture was centrifuged at least at 3000 g/20 min/4° C. and the pellet used immediately or stored at −80′C.
The pellets (fresh or thawed) were resuspended in 10 to 20 mL of Buffer A (50 mM Hepes+150 mM NaCl+40 mM Imidazole+5% Glycerol−pH 7.5). The resuspended cells were then sonicated in ice for, 5 min at 37% Amplitude with 5″ ON and 15″ OFF sonication pulse. The sonicated cells were centrifuged for at least 20 min at 15500 g and 4° C. The supernatant containing the soluble fraction of proteins was recovered, filtered using 0.45 or 0.2 um filters, and used for His-trap protein purification.

[6] = Substrate specificity, propionate with acetyl-CoA, LC-MS; type: biochemical
Procedure: as §1, §2, §4

[7] = Substrate specificity, butyrate with acetyl-CoA, LC-MS; type: biochemical
Procedure: as §1, §2, §4

[8] = Substrate specificity, 3-butenoate with acetyl-CoA, LC-MS; type: biochemical; conditions: substrate 3-butenoate + acetyl-CoA
Procedure: as §1, §2, §4

[9] = Substrate specificity, 4-pentenoate with acetyl-CoA, LC-MS; type: biochemical; conditions: substrate 4-pentenoate + acetyl-CoA
Procedure: as §1, §2, §4

[10] = Substrate specificity, 6-heptenoate with acetyl-CoA, LC-MS; type: biochemical; conditions: substrate 6-heptenoate + acetyl-CoA
Procedure: as §1, §2, §4

[11] = Substrate specificity, 2-hexenoate with acetyl-CoA, LC-MS; type: biochemical; conditions: substrate 2-hexenoate + acetyl-CoA
Procedure: as §1, §2, §4

B1: E324G: YdiF mutant, glycine for the glutamate in position 324, SEQ ID NO: 3 (protein)
chain: MGHHHHHHSSGLVPRGSMRKVPIITADEAAKLIKDGDTVTTSGFVGNAIPEALDRAVEKRFLETGEPKNITYVYCGSQGNRDGRGAEHFAHEGLLKRYIAGHWATVPALGKMAMENKMEAYNVSQGALCHLFRDIASHKPGVFTKVGIGTFIDPRNGGGKVNDITKEDIVELVEIKGQEYLFYPAFPIHVALIRGTYADESGNITFEKEVAPLEGTSVCQAVKNSGGIVVVQVERVVKAGTLDPRHVKVPGIYVDYVVVADPEDHQQSLDCEYDPALSGEHRRPEVVGEPLPLSAKKVIGRRGAIELEKDVAVNLGVGAPEYVASVADEEGIVDFMTLTAGSGAIGGVPAGGVRFGASYNADALIDQGYQFDYYDGGGLDLCYLGLAECDEKGNINVSRFGPRIAGCGGFINITQNTPKVFFCGTFTAGGLKVKIEDGKVIIVQEGKQKKFLKAVEQITFNGDVALANKQQVTYITERCVFLLKEDGLHLSEIAPGIDLQTQILDVMDFAPIIDRDANGQIKLMDAALFAEGLMGLKEMKS
With B1 as the molecule, how does the transferase activity [1] read?
The transferase activity was “Abolition of transferase activity”.

What about the “keto-thiol product (3-oxopentanoyl-CoA)” value [2] of the same molecule?
Its value is “presence of the keto-thiol product”.

B2: Bdigene 0244: 4-Hydroxybutyrate-CoA transferase from Clostridium aminobutyricum, Uniprot Q9RM86, SEQ ID NO: 19 (protein, listed as Clostridium aminobutyricum)
chain: MDWKKIYEDRTCTADEAVKSIKSGDRVLFAHCVAEPPVLVEAMVANAAAYKNVTVSHMVTLGKGEYSKPEYKENFTFEGWFTSPSTRGSIAEGHGQFVPVFFHEVPSLIRKDIFHVDVFMVMVSPPDHNGFCCVGVSSDYTMQAIKSAKIVLAEVNDQVPVVYGDTFVHVSEIDKFVETSHPLPEIGLPKIGEVEAAIGKHCASLIEDGSTLQLGIGAIPDAVLSQLKDKKHLGIHSEMISDGVVDLYEAGVIDCSQKSIDKGKMAITFLMGTKRLYDFAANNPKVELKPVDYINHPSVVAQCSKMVCINACLQVDFMGQIVSDSIGTKQFSGVGGQVDFVRGASMSIDGKGKAIIAMPSVAKKKDGSMISKIVPFIDHGAAVTTSRNDADYVVTEYGIAEMKGKSLQDRARALINIAHPDFKDELKAEFEKRFNAAF
With B2 as the molecule, how does the ketothiol-product [3] read?
The ketothiol-product was “✓”.

And the thiol-product [3]?
The thiol-product was “✓”.

What about the ketothiol-product ([4]; listed as Protein 244) of the same molecule?
The ketothiol-product was “✓”.

And the thiol-product ([4]; listed as Protein 244)?
Its thiol-product is “✓”.

And the ketothiol-product ([4]; listed as protein 244)?
The ketothiol-product was “detected”.

And the thiol-product ([4]; listed as protein 244)?
Its thiol-product is “detected”.

What about the Solubility [5] of the same molecule?
The Solubility was “✓”.

B3: Bdigene 0344: Succinyl-CoA: acetate CoA-transferase from Acetobacter aceti, Uniprot B3EY95 (protein, UniProt B3EY95 1-505, looked up)
Succinyl-CoA:acetate …: MTERIRNVALRSKVCPAETASELIKHGDVVGTSGFTGAGYPKEVPKALAQRMEAAHDRGEKYQISLITGASTGPQLDGELAKANGVYFRSPFNTDATMRNRINAGETEYFDNHLGQVAGRAVQGNYGKFNIALVEATAITEDGGIVPTSSVGNSQTFLNLAEKVIIEVNEWQNPMLEGIHDIWDGNVSGVPTRDIVPIVRADQRVGGPVLRVNPDKIAAIVRTNDRDRNAPFAAPDETAKAIAGYLLDFFGHEVKQNRLPPSLLPLQSGVGNVANAVLEGLKEGPFENLVGYSEVIQDGMLAMLDSGRMRIASASSFSLSPEAAEEINNRMDFFRSKIILRQQDVSNSPGIIRRLGCIAMNGMIEADIYGNVNSTRVMGSKMMNGIGGSGDFARSSYLSIFLSPSTAKGGKISAIVPMAAHVDHIMQDAQIFVTEQGLADLRGLSPVQRAREIISKCAHPDYRPMLQDYFDRALKNSFGKHTPHLLTEALSWHQRFIDTGTMLPS
Which results are given for B3?
ketothiol-product [3]: ✓; thiol-product [3]: ✓; Solubility [5]: ✓

B4: Bdigene 0345: Succinyl-CoA--D-citramalate CoA-transferase from Chloroflexus aurantiacus, Uniprot A9WGE3 (protein, UniProt A9WGE3 1-402, looked up)
Succinyl-CoA--D-citramalate …: MSSQRPPRPLDDVRVLELGAFLAGPFCGQLLADFGAEVIKVEPPGKGDPMREWGRHRYKGRTLWWPVLARNKKSITIDLRTPEGQALVKRLVPHVDMVLENFRPGTLEEWGLGWEELHALNPGLIMIRVSGFGQTGPYRDKAGFGSIGEAMGGIRAITGFPDRPPTRIGISIGDSLAATFAALGALVALHQRQRSGQGQVVDIGIYEGVLALMESMIPEYQLTGHIRERTGNILPNVAPSNIYPTADGSWFVIGANADTIFTRLAQAMGQPELATDPRFATHQARGEHQAELDDLIAAWTLNYTADQLQVMMDEYGVPAGRIYTAKEMLSDPHFIARQSIIGVHDPDLGEIKMQNVVPRLSATPGGVDWTGPALGQHNREIFTDLLGLTEDDLAMLQAKRVI
For B4, which ketothiol-product [3] is on record?
Its ketothiol-product is “✓”.

What about the thiol-product [3] of the same molecule?
The thiol-product was “✓”.

And the Solubility [5]?
The Solubility was “✓”.

B5: Bdigene 237: Acetate/Propionate CoA-transferase (YdiF) from Clostridium propionicum, Uniprot Q9L3F7, SEQ ID NO: 1 (protein, listed as Clostridium propionicum)
chain: MRKVPIITADEAAKLIKDGDTVTTSGFVGNAIPEALDRAVEKRFLETGEPKNITYVYCGSQGNRDGRGAEHFAHEGLLKRYIAGHWATVPALGKMAMENKMEAYNVSQGALCHLFRDIASHKPGVFTKVGIGTFIDPRNGGGKVNDITKEDIVELVEIKGQEYLFYPAFPIHVALIRGTYADESGNITFEKEVAPLEGTSVCQAVKNSGGIVVVQVERVVKAGTLDPRHVKVPGIYVDYVVVADPEDHQQSLDCEYDPALSGEHRRPEVVGEPLPLSAKKVIGRRGAIELEKDVAVNLGVGAPEYVASVADEEGIVDFMTLTAESGAIGGVPAGGVRFGASYNADALIDQGYQFDYYDGGGLDLCYLGLAECDEKGNINVSRFGPRIAGCGGFINITQNTPKVFFCGTFTAGGLKVKIEDGKVIIVQEGKQKKFLKAVEQITFNGDVALANKQQVTYITERCVFLLKEDGLHLSEIAPGIDLQTQILDVMDFAPIIDRDANGQIKLMDAALFAEGLMGLKEMKS
With B5 as the molecule, how does the ketothiol-product [3] read?
The ketothiol-product was “✓”.

And the thiol-product [3]?
Its thiol-product is “✓”.

And the ketothiol-product [6]?
The ketothiol-product was “✓”.

What about the thiol-product [6] of the same molecule?
Its thiol-product is “✓”.

And the ketothiol-product [7]?
The ketothiol-product was “✓”.

And the thiol-product [7]?
Its thiol-product is “✓”.

And the ketothiol-product [8]?
Its ketothiol-product is “✓”.

And the thiol-product [8]?
The thiol-product was “✓”.

What about the ketothiol-product [9] of the same molecule?
The ketothiol-product was “✓”.

And the thiol-product [9]?
The thiol-product was “✓”.

And the ketothiol-product [10]?
Its ketothiol-product is “✓”.

And the thiol-product [10]?
The thiol-product was “✓”.

What about the ketothiol-product [11] of the same molecule?
The ketothiol-product was “✓”.

What about the thiol-product [11] of the same molecule?
Its thiol-product is “✓”.

B6: Bdigene 272: Acetate CoA-transferase YdiF from Peptostreptococcaceae bacterium oral taxon, Uniprot U2L5C9, SEQ ID NO: 5 (protein)
chain: MAKFVTLEEAVSVVKNGDTVATTGFVQVANPEALEWALGKRFEETKEPRDLTLFYCAGQGDGDCRAVNHFAKEGMLKRVVAGHFNMAPLLRQFISDNKCEAYNVPQGVLCNMVRDIAAKKPGVISHVGLNTFADPRIEGCKINLVTKEDIVELMMINGEEKLFYKTFPLTIAFIKGTYADERGNVTLENEGIPSEATSIAQSVHNCGGKVIVQVEKVVAAGTLDPKLVKVPGIYVDYIVQVDDPSMRQQCYGVDYEPELAGNVYIPLSDIPLKTPLNERKIIARRGAFEIRKGNVGNLGIGVPEVVSEVVSEEGITDWLTLTVEVGPVGGSPQGKNRFGTAINAEAILDQPYQFDFYDGGGLDIAYLGLAQADAKGNLNVSKFGDRVAGCGGFIDISQNSKAVVFCGSFTAGGLKVEVNDGKLNIVQEGKVKKFVNKVQQITFSGEYARKTGQRVFYVTERAVFQMKPEGLTLIEIAPGVDLEKDVLNQMEFKPLIAKDLKLMDERIFRPGPMGIKNDN
Which results are given for B6?
ketothiol-product [3]: ✓; thiol-product [3]: ✓; Solubility [5]: ✓
